Key:
[1] = molecular target: T1, canine CD20 (canine, UniProt Q3C2E2 1-297); assay: cell-based or functional assay
T1 chain: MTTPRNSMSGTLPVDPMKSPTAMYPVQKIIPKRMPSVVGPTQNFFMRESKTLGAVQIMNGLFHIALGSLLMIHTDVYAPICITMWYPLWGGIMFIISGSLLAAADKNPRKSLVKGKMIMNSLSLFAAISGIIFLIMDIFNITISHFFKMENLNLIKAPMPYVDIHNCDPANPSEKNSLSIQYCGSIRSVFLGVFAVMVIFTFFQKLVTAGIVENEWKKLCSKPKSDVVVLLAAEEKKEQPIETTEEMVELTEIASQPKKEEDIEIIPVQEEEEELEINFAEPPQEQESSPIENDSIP

[2] = molecular target: T2, canine CD20 (UniProt Q3C2E2 1-297); assay: flow cytometry, cCD20-expressing MDCK II cells; apparent Kd (EC50 of binding)
T2 chain: T1 chain

B1: PMX070 (antibody, V domains shown)
VH: EMQLVESGGDLVKPGGSLRLSCVASGFTFSRYHMSWVRQAPGKGLQWVAYINSGGSPTNYADAVKGRFTISRDNAKNTLYLQMNSLRAEDTAVYYCTTYDQWGQGTLVTVSS
VL: SYVLTQLPSKSVTLKQPAHITCGGDNIGSKSVHWYQQKLGQAPVLIIYYDSSRPTGIPERFSGANSGNTATLTISGALAEDEADYYCQVWDTSANVFGGGTHLTVL
ADCC EC50 [1]: 0.29 nM | ADCC Maximum killing (%) [1]: 51% | CDC EC50 [1]: 11.2 nM | CDC Maximum killing (%) [1]: 97.1% | Kd [2]: 1.1 nM
